Target: the molecule itself
Assay: Western blot, homodimer formation

B1: K3 NGAL mutant protein (ligand)
chain: QDSTSDLIPAPPLSSVPLQQNFQDNQFQGKWYVVGLAGNAILREDEDPQKMYATIYELKEDKSYNVTSVLFRDDGCDYWIRTFVPGCQPGEFTLGNIQSYPGLTSYLVRVVSTNYNQFAMVFFKKVSQNQEYFKITLYGRTKELTSELQENFIRFSKSLGLPENNIVFPVPIDQCIDG
notes: Mutant of human NGAL; Expressed in bacteria like the wild type and labelled with Alexa 568 in the uptake assays; also called K3 Scn-Ngal; Mut1
  binding result: binds

— patent publication US12173037 (TRUSTEES OF COLUMBIA UNIVERSITY IN THE CITY OF NEW YORK, dated 2024)
